We go through three molecules from patent US20090220511A1 (RUTGERS THE STATE UNIVERSITY OF NEW JERSEY, published 2009).

The target of series [1] is FLAG tagged chimeric IL-10R1/CRF2-12 receptor (IL-10R1 extracellular domain fused to the transmembrane and intracellular domains of CRF2-12) on HT-29 cells (human) (UniProt Q13651). As to the kind of experiment: cell-based or functional assay.
Series [2] deals with the molecule itself. As to the kind of experiment: crosslinking of the 32P-labeled ligand to itself in solution, SDS-PAGE. On the procedure: (§1) Untreated 32P-labeled FL-IFN-λ1-P ([32P]FL-IFN-λ1-P) was loaded as a control (lane 1). ([32P]FL-IFN-λ1-P) was also incubated in DMEM medium with 10% FBS and crosslinking in solution was performed as described (32) (lane 2). The untransfected and transfected hamster cells described in FIG. 22 row 1 were incubated with 32P-labeled FL-IFN-λ1-P with or without addition of a 100-fold excess of unlabeled IFN-λ1 (competitor), washed, harvested and crosslinked. The extracted crosslinked complexes were analyzed on 7.5% SDS-PAGE. The molecular weight markers are shown on the left.
(§2) In another embodiment of the present invention, the interaction between IFN-λ and its receptor was characterized by crosslinking (FIG. 22). Crosslinking experiments were performed with radiolabeled IFN-λ (FIGS. 20B and C) and the IFN-λ receptor chains expressed in hamster cells (FIG. 22). COS cell-expressed FL-IFN-λ1-P was purified to homogeneity and radiolabeled (FIGS. 20B and C). […] FL-IFN-λ1-P was labeled with [32P]ATP and used for crosslinking to cells as described (Li, et al., (1989) Proc Natl Acad Sci USA 86, 558-562; Kotenko, et al., (1995) J Biol Chem 270, 20915-20921; Pestka, et al., (1999) Protein Expr Purif 17, 203-214; Kotenko, et al., (2001) J Immunol 166, 7096-7103).

Series [3] addresses T1, intact human CRF2-4 chain expressed alone on hamster 16-9 cells (human, UniProt Q08334 20-325).
T1 construct: whole, on cells; From plasmid pEF-CRF2-4 (pEF-IL-10R2), on hamster 16-9 cells without CRF2-12/γR1; also called IL-10R2
T1 sequence (looked up): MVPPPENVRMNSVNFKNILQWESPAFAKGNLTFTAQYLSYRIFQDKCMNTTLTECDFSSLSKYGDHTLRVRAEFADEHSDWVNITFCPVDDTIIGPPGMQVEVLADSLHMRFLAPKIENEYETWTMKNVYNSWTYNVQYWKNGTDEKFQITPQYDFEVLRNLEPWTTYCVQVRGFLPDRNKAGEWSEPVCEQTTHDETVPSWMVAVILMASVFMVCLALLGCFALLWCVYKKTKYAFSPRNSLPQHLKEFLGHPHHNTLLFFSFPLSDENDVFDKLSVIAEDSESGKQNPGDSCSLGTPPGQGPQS
The experiment in a line: crosslinking of 32P-labeled ligand to transfected hamster cells, 7.5% SDS-PAGE. On the procedure:
as §1
as §2, with “7096-7103). […]” for “7096-7103).”

Series [4] deals with T2, chimeric human CRF2-12/γR1 chain expressed alone on hamster 16-9 cells (human, UniProt P15260 246-489).
T2 construct: domain: transmembrane and intracellular domains; On the cell surface of hamster 16-9 cells, without human CRF2-4; also called CRF2-12/IFN-γR1; CRF2-12/gR1
T2 sequence: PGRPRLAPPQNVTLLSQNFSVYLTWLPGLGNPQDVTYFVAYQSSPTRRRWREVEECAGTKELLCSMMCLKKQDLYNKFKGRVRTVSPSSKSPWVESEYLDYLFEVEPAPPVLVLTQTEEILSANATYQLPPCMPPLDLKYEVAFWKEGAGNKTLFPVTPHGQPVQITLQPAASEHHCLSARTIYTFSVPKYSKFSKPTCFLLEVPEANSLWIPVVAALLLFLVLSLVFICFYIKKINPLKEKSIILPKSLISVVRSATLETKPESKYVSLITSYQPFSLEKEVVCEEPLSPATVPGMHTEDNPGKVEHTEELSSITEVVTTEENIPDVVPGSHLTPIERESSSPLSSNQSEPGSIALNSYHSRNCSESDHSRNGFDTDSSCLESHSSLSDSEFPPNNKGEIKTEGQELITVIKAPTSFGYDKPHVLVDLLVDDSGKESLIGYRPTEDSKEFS
Described as above. On the procedure:
as §1
as §2, with “7096-7103). […]” for “7096-7103).”

Series [5] deals with T1, intact human CRF2-4 chain expressed …. As to the kind of experiment: flow cytometry with anti-FLAG antibody on transfected hamster cells. On the procedure:
(§3) A. Four cell lines used in these experiments are schematically shown (top panels): the parental Chinese hamster 16-9 cells and cells expressing the human CRF2-12/gR1 chimeric receptor or human IL-10R2 alone or both receptors together. […] The cells were also tested for their ability to bind FL-IFN-λs (panels E, F, G, H and I). The cells were incubated for three hours at 20° C. with conditioned medium from COS-1 cells transfected with one of the following plasmids: the control vector pEF-SPFL (open areas, thick lines); the pEF-FL-IFN-λ1 (FL-IFN-λ1; open areas, thin lines; panels E, F, G and H) or the pEF-FL-IFN-λ2 (FL-IFN-λ2; shaded areas, thin lines; panel I). […] Cells expressing both chains were co-incubated with either FL-IFN-λ1 or FL-IFN-λ2 ([…] of conditioned media from COS cells expressing FL-IFN-λ1/2) and with E. coli produced IFN-λ1 lacking the FLAG epitope (IFN-λ1E. coli, 1 mg/ml) (open areas, thin lines; panels H and I). Ligand binding to the cell surface was determined by flow cytometry with anti-FLAG antibody (Sigma) as the primary antibody and fluorescein isothiocyanate-conjugated goat anti-mouse IgG (Santa Cruz) as the secondary antibody. The ordinate represents relative cell numbers, and the abscissa relative fluorescence (logarithmic scale).

For series [6], the target named is T2, chimeric human CRF2-12/γR1 chain …. The series is described as above. On the procedure:
as §3

Chain of FLAG tagged chimeric IL-10R1/CRF2-12 receptor (IL-10R1 extracellular domain fused to the transmembrane and intracellular domains of CRF2-12) on HT-29 cells (human) (Q13651 other isoform, or with tags, fused parts or gaps mutant limits assumed): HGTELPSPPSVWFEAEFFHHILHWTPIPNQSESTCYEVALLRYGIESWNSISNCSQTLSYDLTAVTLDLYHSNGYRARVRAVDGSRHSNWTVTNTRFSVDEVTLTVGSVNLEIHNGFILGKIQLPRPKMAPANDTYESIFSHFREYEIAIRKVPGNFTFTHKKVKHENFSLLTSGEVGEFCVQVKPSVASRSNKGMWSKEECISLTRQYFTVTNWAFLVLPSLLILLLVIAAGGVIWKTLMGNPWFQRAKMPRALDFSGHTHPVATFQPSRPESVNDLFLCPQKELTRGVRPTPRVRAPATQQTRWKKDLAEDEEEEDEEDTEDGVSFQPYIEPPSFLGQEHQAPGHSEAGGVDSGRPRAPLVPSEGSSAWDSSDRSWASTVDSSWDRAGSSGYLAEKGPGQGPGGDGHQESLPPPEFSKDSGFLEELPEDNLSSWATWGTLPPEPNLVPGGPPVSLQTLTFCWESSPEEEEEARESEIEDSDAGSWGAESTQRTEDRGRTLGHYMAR

In series [1], “IL-10 (from UniProt P22301 19-178) (ligand)” gave an MHC class I antigen induction and antiviral activity of HT-29 cells expressing FL-IL-10R1/CRF2-12 of 1 ng/mL; an apoptosis of HT-29 cells expressing FL-IL-10R1/CRF2-12 greater than 10 ng/mL.

B1: 32P-labeled FL-IFN-λ1-P (ligand, not shown: small tags and cut ends)
chain: PTSKPTPTGKGCHIGRFKSLSPQELASFKKARDALEESLKLKNWSCSSPVFPGNWDLRLLQVRERPVALEAELALTLKVLEAAAGPALEDVLDQPLHTLHHILSQLQACIQPQPTAGPRPRGRLHHWLHRLQEAPKKESAGCLEASVTFNLFRLLTRDLKYVADGNLCLRTSTHPESTRRASVA
modifications: labeled with [32P]ATP on the C-terminal Arg-Arg-Ala-Ser-Val-Ala tag (consensus site of the cAMP-dependent protein kinase)
notes: Expressed in COS cells, purified on anti-FLAG M1 gel and radiolabeled; Primer ifnl-7R may encode extra junction residues before the RRASVA tag; also called [32P]FL-IFN-λ1-P; radiolabeled IFN-λ
Consider B1, for which the binding result in series [2], in series [3] and in series [4] was “no binding” in each case.

B2: FL-IFN-λ1 (IFN-λ1 tagged at its N-terminus with the FLAG epitope) (ligand, not shown: small tags and cut ends)
chain: PTSKPTPTGKGCHIGRFKSLSPQELASFKKARDALEESLKLKNWSCSSPVFPGNWDLRLLQVRERPVALEAELALTLKVLEAAAGPALEDVLDQPLHTLHHILSQLQACIQPQPTAGPRPRGRLHHWLHRLQEAPKKESAGCLEASVTFNLFRLLTRDLKYVADGNLCLRTSTHPEST
notes: Used as conditioned medium of transiently transfected COS-1 cells; also called FL-IFN-λ1gene product
In the case of B2, the binding result in series [5] and in series [6] was “no binding” in each case.
